Results: publication PMC3439536

B1: 50% CpG rich DNA (dsDNA)
DNA 1: TTCGATCGCACGCCCG
DNA 2: CGGGCGTGCGATCGAA
B2: 25bp adenoviral E1a DNA (dsDNA)
DNA 1: TTCTATGCCAAACCTTGTGCCGGAG
DNA 2: CTCCGGCACAAGGTTTGGCATAGAA
B3: 16bp scrambled DNA (dsDNA)
DNA 1: ATGCATGCTGACTACG
DNA 2: CGTAGTCAGCATGCAT
B4: 15bp adenoviral E1a DNA (dsDNA)
DNA 1: TTCTATGCCAAACCT
DNA 2: AGGTTTGGCATAGAA

The binders below were run against CR2 SCR1-4-BCCP (Homo sapiens, UniProt P20023 21-273) (assay: SPR).
Chain of CR2 SCR1-4-BCCP (P20023 21-273): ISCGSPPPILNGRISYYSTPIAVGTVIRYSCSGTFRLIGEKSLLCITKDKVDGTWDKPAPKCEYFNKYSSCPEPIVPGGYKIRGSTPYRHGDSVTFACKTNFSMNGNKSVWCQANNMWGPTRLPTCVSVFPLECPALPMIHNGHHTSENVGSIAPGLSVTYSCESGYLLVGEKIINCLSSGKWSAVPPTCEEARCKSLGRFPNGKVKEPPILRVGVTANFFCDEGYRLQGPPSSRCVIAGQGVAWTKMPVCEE

Row | Binder | Kd [nM]
1 | B1 | 509
2 | B2 | 358
3 | B3 | 266
4 | B4 | 245
